Assay results: the supplement of paper PMC7877785
± gives the uncertainty stated by the source.

Experiment: self-splicing fitness, log relative to wild type (ln ratio); higher = more splicing; Tetrahymena group I intron in knt gene, E. coli kanamycin selection, DiMSum; sequences stand for … in CUCUCU…GGAGGGAAAAGUUAUCAGGCAUGCACCUGGUAGCUAGUCUUUAAACCAAUAGAUUGCAUCGGUUUAAAAGGCAAGACCGUCAAAUUGCGGGAAAGGGGUCAACAGCCGUUCAGUACCAAGUCUCAGGGGAAACUUUGAGAUGGCCUUGCAAAGGGUAUGGUAAUAAGCUGACGGACAUGGUCCUAACCACGCAGCCAAGUCCUAAGUCAACAGAUCUUCUGUUGAUAUGGAUGCAGUUCACAGACUAAAUGUCGGUCGGGGAAGAUGUAUUCUUCUCAUAAGAUAUAGUCGGACCUCUCCUUAAUGGGAGCUAGCGGAUGAAGUGAUGCAACACUGGAGCCGCUGGGAACUAAUUUGUAUGCGAAAGUAUAUUGAUUAGUUUUGGAGUACUCGUGGUCG
Method in brief: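 Fitness was computed with DiMSum as the error-weighted combination of replicate fold changes, kanamycin versus none, each normalised to wild type. The library randomised all eight intron nucleotides of the P1ex region, with the intron placed in the knt kanamycin-resistance gene on pET-22b(+) in E. coli BL21(DE3). Six replicate transformations were grown overnight at 37°C or 30°C on LB agar with or without 25 μg/mL kanamycin, plus 100 μg/mL carbenicillin, 50 μM IPTG and 0.2% rhamnose. Pooled colonies were amplicon-sequenced on an Illumina HiSeq 2500.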

Row | Sequence | self-splicing fitness (ln) (30 °C) | self-splicing fitness (ln) (37 °C)
1 | AGCAAGCAAUAUUACGGGAC | -3.76 ± 0.33 | -2.24 ± 0.29
2 | UUAAAGCAAUAUUACGCGCA | -0.137 ± 0.072 | -0.0874 ± 0.1
3 | CGAUAGCAAUAUUACGCGAA | -2.95 ± 0.21 | -1.92 ± 0.21
4 | UGAGAGCAAUAUUACGCUGG | -3.87 ± 0.22 | -2.67 ± 0.25
5 | GGCUAGCAAUAUUACGGAUC | -0.815 ± 0.23 | 0.314 ± 0.2
6 | GCCUAGCAAUAUUACGACCA | -1.08 ± 0.14 | -1.34 ± 0.13
7 | GGACAGCAAUAUUACGCCAG | -2.17 ± 0.22 | -2.07 ± 0.35
8 | GUUCAGCAAUAUUACGCAGA | -1.72 ± 0.2 | -1.3 ± 0.17
9 | GAAAAGCAAUAUUACGUACU | -0.864 ± 0.069 | -0.0522 ± 0.1
10 | UGUUAGCAAUAUUACGAAUU | -1.44 ± 0.11 | -1.6 ± 0.22
11 | GUAUAGCAAUAUUACGCUUG | -1.72 ± 0.16 | -1.41 ± 0.26
12 | AAGCAGCAAUAUUACGUAUU | -2.12 ± 0.058 | -1.43 ± 0.082
13 | UAGUAGCAAUAUUACGCACC |  | -0.0165 ± 0.38
14 | CACAAGCAAUAUUACGUUUG | -2.89 ± 0.078 | -2.14 ± 0.089
15 | CGCGAGCAAUAUUACGCUAG |  | -1.39 ± 0.29
16 | ACGGAGCAAUAUUACGCGAA | -3.05 ± 0.32 | -1.57 ± 0.23
17 | GUCGAGCAAUAUUACGCCCG | -2.96 ± 0.48 | -2.03 ± 0.4
18 | CUUCAGCAAUAUUACGAGAU | -3.35 ± 0.23 | -2.43 ± 0.26
19 | UCCCAGCAAUAUUACGGUUA | -0.244 ± 0.071 | 0.0867 ± 0.077
20 | AACCAGCAAUAUUACGUGUC | -3.29 ± 0.094 | -1.42 ± 0.075
21 | GUAGAGCAAUAUUACGGAAU | -2.36 ± 0.084 | -1.18 ± 0.096
22 | CAACAGCAAUAUUACGCACG | -0.598 ± 0.067 | 0.246 ± 0.094
23 | CGGAAGCAAUAUUACGGCUU | -3.34 ± 0.3 | -2.75 ± 0.36
24 | AUUGAGCAAUAUUACGUAGA | -2.86 ± 0.26 | -2.38 ± 0.42
25 | UCUUAGCAAUAUUACGUUCG | -2.21 ± 0.11 | -1.38 ± 0.18

Row | Sequence | self-splicing fitness (ln) (30 °C) | self-splicing fitness (ln) (37 °C)
26 | UGACAGCAAUAUUACGCUUC | -3.56 ± 0.25 | -2.29 ± 0.23
27 | UGUGAGCAAUAUUACGACUU | -2.13 ± 0.23 | -2.33 ± 0.26
28 | CAGAAGCAAUAUUACGUUCG | -0.642 ± 0.051 | 0.234 ± 0.064
29 | CCUAAGCAAUAUUACGGGAU | -4.35 ± 0.22 | -3.29 ± 0.21
30 | CACGAGCAAUAUUACGUCUA | -1.3 ± 0.32 | -1.55 ± 0.27
31 | AGGCAGCAAUAUUACGUGUC | -3.18 ± 0.15 | -2.58 ± 0.19
32 | AAUGAGCAAUAUUACGCGGC | -2.15 ± 0.19 | -2.11 ± 0.24
33 | GUGUAGCAAUAUUACGUCCA | -1.74 ± 0.38 | -0.639 ± 0.39
34 | AAGGAGCAAUAUUACGUGCU |  | -2.92 ± 0.47
35 | AUCCAGCAAUAUUACGAAAC | -2.56 ± 0.11 | -1.47 ± 0.16
36 | ACCGAGCAAUAUUACGGCAG | -4.4 ± 0.39 | 
37 | GUUCAGCAAUAUUACGCUUA | -0.682 ± 0.12 | -0.0254 ± 0.12
38 | GAUUAGCAAUAUUACGGUGG | -2.89 ± 0.2 | -2.88 ± 0.2
39 | UCAAAGCAAUAUUACGUUAG | -2.02 ± 0.12 | -1.64 ± 0.12
40 | UUUCAGCAAUAUUACGAGGA | -0.995 ± 0.18 | -0.121 ± 0.22
41 | CCCCAGCAAUAUUACGCGUG | -4.14 ± 0.18 | -2.76 ± 0.15
42 | GAUGAGCAAUAUUACGCCAG | -3.63 ± 0.22 | -3.07 ± 0.4
43 | GGGAAGCAAUAUUACGUGUG | -1.15 ± 0.097 | -1.24 ± 0.13
44 | GUACAGCAAUAUUACGAAUG | -3.54 ± 0.25 | -0.988 ± 0.18
45 | AAGUAGCAAUAUUACGAUCA | -0.93 ± 0.11 | -0.174 ± 0.11
46 | GAUUAGCAAUAUUACGUGCC | 0.747 ± 0.28 | -0.667 ± 0.46
47 | GAUAAGCAAUAUUACGGAUC | -1.37 ± 0.18 | -0.674 ± 0.25
48 | AAUGAGCAAUAUUACGGAUC | -2.24 ± 0.3 | -0.974 ± 0.3
49 | AACCAGCAAUAUUACGAAUU | -0.517 ± 0.064 | -0.314 ± 0.081
50 | AUUAAGCAAUAUUACGGUAA | -1.64 ± 0.12 | -1.33 ± 0.11

Row | Sequence | self-splicing fitness (ln) (30 °C) | self-splicing fitness (ln) (37 °C)
51 | GCCGAGCAAUAUUACGAUUA | -1.44 ± 0.13 | -1.39 ± 0.15
52 | CGGUAGCAAUAUUACGCUUA |  | -1.95 ± 0.2
53 | CGGCAGCAAUAUUACGGGGG | -3 ± 0.13 | -1.86 ± 0.16
54 | GGCUAGCAAUAUUACGAACU | -0.723 ± 0.25 | 0.433 ± 0.25
55 | UGACAGCAAUAUUACGCUGU | -4.01 ± 0.24 | -3.42 ± 0.27
56 | AUCUAGCAAUAUUACGUUCU | -1.52 ± 0.09 | -0.607 ± 0.11
57 | UGGUAGCAAUAUUACGACCG | -1.22 ± 0.22 | -0.981 ± 0.27
58 | AGUGAGCAAUAUUACGACUU | -1.18 ± 0.17 | -0.93 ± 0.19
59 | UAUUAGCAAUAUUACGAAUA | -0.842 ± 0.38 | -0.292 ± 0.38
60 | ACGUAGCAAUAUUACGAGGU | -3.36 ± 0.21 | -2.02 ± 0.2
61 | AAACAGCAAUAUUACGAGCU | -1.25 ± 0.068 | -0.704 ± 0.086
62 | ACUAAGCAAUAUUACGGUGA | -1.54 ± 0.093 | -0.619 ± 0.13
63 | UUACAGCAAUAUUACGCUCU | -1.01 ± 0.074 | -0.47 ± 0.087
64 | AAUGAGCAAUAUUACGCGAU | -3.63 ± 0.41 | -0.995 ± 0.22
65 | ACUUAGCAAUAUUACGGAGG | -2.19 ± 0.13 | -1.48 ± 0.16
66 | UAUCAGCAAUAUUACGUGAC | -0.555 ± 0.1 | -1.45 ± 0.15
67 | CAGAAGCAAUAUUACGGCCU | -1.29 ± 0.13 | -1.82 ± 0.23
68 | CGCAAGCAAUAUUACGUUCA | -1.33 ± 0.1 | -0.636 ± 0.098
69 | GAAAAGCAAUAUUACGUGCC | -1.69 ± 0.19 | -0.25 ± 0.22
70 | GAGUAGCAAUAUUACGCCAA | -1.98 ± 0.43 | -1.66 ± 0.32
71 | AGAGAGCAAUAUUACGUUUC | -2.27 ± 0.21 | -1.41 ± 0.23
72 | CGCGAGCAAUAUUACGGCCG | -3.16 ± 0.3 | -1.35 ± 0.29
73 | ACGGAGCAAUAUUACGUCAU | -4.36 ± 0.37 | -3.01 ± 0.37
74 | GGCCAGCAAUAUUACGGACG | -0.421 ± 0.072 | 0.71 ± 0.1
75 | AGAGAGCAAUAUUACGGCGU | -2.48 ± 0.19 | -2.7 ± 0.25

Row | Sequence | self-splicing fitness (ln) (30 °C) | self-splicing fitness (ln) (37 °C)
76 | GAUUAGCAAUAUUACGAUAC | -1.24 ± 0.19 | -0.415 ± 0.18
77 | UUACAGCAAUAUUACGUAUA | -1.59 ± 0.11 | -0.688 ± 0.14
78 | CGUCAGCAAUAUUACGGUCC | -1.34 ± 0.079 | -0.173 ± 0.1
79 | CCCCAGCAAUAUUACGGACC | -4.08 ± 0.35 | -2.64 ± 0.26
80 | UAUCAGCAAUAUUACGUACA | -0.141 ± 0.058 | -0.199 ± 0.07
81 | GCGUAGCAAUAUUACGUGAA | -2.92 ± 0.15 | -1.49 ± 0.13
82 | CACGAGCAAUAUUACGGAGA | -3.38 ± 0.2 | -2.85 ± 0.25
83 | CGUAAGCAAUAUUACGCGAC | -3.62 ± 0.37 | -2.63 ± 0.42
84 | GGUUAGCAAUAUUACGUAUG | -3.18 ± 0.17 | -0.52 ± 0.15
85 | UGUAAGCAAUAUUACGGUUA | -0.297 ± 0.091 | -0.0116 ± 0.098
86 | GAACAGCAAUAUUACGUAGC | -0.75 ± 0.074 | -0.22 ± 0.1
87 | CGAGAGCAAUAUUACGUACC | -3.27 ± 0.38 | -1.7 ± 0.41
88 | GACCAGCAAUAUUACGAUAG | -1.73 ± 0.074 | -1.45 ± 0.11
89 | UAUCAGCAAUAUUACGAAUG | 0.00149 ± 0.052 | 0.0362 ± 0.07
90 | CGGGAGCAAUAUUACGAGUG | -3.61 ± 0.24 | -1.61 ± 0.2
91 | CGAAAGCAAUAUUACGUAGU | -3.2 ± 0.098 | -2.77 ± 0.13
92 | GGAAAGCAAUAUUACGCUAG | -2.03 ± 0.22 | -0.857 ± 0.29
93 | AAUUAGCAAUAUUACGUUGA | -2.74 ± 0.15 | -1.55 ± 0.11
94 | AGAGAGCAAUAUUACGUGUU | -3.21 ± 0.18 | -3.64 ± 0.36
95 | AUCCAGCAAUAUUACGAGCG | -2.01 ± 0.11 | -1.24 ± 0.12
96 | CUCCAGCAAUAUUACGGGGA | -3.46 ± 0.18 | -0.678 ± 0.1
97 | UAAUAGCAAUAUUACGCAGA |  | -0.288 ± 0.16
